Test results reported in publication PMC5929103.

Key:
Test in all cases: enzyme inhibition kinetics
[1] = biological target: human cationic trypsin, active (human)
[2] = biological target: human anionic trypsin, active (human) (UniProt P07478)
[3] = biological target: human mesotrypsin, active (human) (UniProt P35030)
Chain of UniProt P35030 (P35030 81-304): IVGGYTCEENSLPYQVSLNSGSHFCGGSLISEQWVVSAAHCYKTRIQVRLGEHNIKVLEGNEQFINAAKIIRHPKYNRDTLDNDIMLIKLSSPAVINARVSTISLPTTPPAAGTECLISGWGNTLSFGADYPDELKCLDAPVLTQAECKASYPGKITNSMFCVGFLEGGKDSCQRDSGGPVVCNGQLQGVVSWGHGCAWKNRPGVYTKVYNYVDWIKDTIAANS

Chain of UniProt P07478 (P07478 24-247): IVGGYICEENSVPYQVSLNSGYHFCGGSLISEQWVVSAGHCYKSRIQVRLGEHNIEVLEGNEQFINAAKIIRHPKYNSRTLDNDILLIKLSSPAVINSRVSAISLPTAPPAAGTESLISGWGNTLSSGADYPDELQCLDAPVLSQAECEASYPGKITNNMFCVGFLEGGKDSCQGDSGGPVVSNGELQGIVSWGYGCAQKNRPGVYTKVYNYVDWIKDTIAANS

“APPI_(M17G/I18F/F34V), soluble form (designed binder)” gave a Ki [1] of 0.023 nM.

“APPI_(P13W/M17G/I18F/F34V), soluble form (designed binder)” was tested, and the Ki [2] was 0.0038 nM, the Ki [1] was 0.019 nM and the Ki [3] was 0.069 nM.

With “wild-type amyloid β-protein precursor Kunitz protease inhibitor domain (APPI) (from UniProt P05067 289-344) (domain or fragment)” the Ki [1] was 0.0041 nM.
